29 molecules from patent US20240116985A1, “STAPLED PEPTIDES AND METHODS THEREOF” (priority 2020, published 2024) can be followed below.

Starred links: 1 amine or outer side, 2 acyl side, 3 side chain; linkers in the order of their positions; H or OH if unused. Positions of bridges follow the written chain, without caps; N, C: chain ends. Non-standard residues stand in square brackets, D forms with d. Primed or numbered codes have the meaning given here. *: point of attachment. PyrS2″ = (S)-3-amino-1-((pent-4-en-1-yloxy)carbonyl)pyrrolidine-3-carboxylic acid (stapling residue), C=CCCCOC(=O)N1CC[C@@](N[*:1])(C(=O)[*:2])C1; B5(4) = 2,2-bis(4-pentenyl)glycine = 2-amino-2-(pent-4-en-1-yl)hept-6-enoic acid (stitching residue), C=CCCCC(CCCC=C)(N[*:1])C(=O)[*:2]; B5(5) = 2,2-bis(4-pentenyl)glycine, 2-amino-2-(pent-4-en-1-yl)hept-6-enoic acid (stitching residue), C=CCCCC(CCCC=C)(N[*:1])C(=O)[*:2]; PyrS2 = (S)-3-amino-1-((pent-4-en-1-yloxy)carbonyl)pyrrolidine-3-carboxylic acid, C=CCCCOC(=O)N1CC[C@@](N[*:1])(C(=O)[*:2])C1; B5(7) = 2-amino-2-(pent-4-en-1-yl)hept-6-enoic acid, two olefinic side chains, C=CCCCC(CCCC=C)(N[*:1])C(=O)[*:2]; B5(25) = 2-amino-2-(pent-4-en-1-yl)hept-6-enoic acid (stitching residue), C=CCCCC(CCCC=C)(N[*:1])C(=O)[*:2]; MorphAsn = (S)-2-amino-4-morpholino-4-oxobutanoic acid, O=C(C[C@H](N[*:1])C(=O)[*:2])N1CCOCC1; B5(3) = 2,2-bis(4-pentenyl)glycine (stitching residue), C=CCCCC(CCCC=C)(N[*:1])C(=O)[*:2]; R6 = (R)-2-amino-2-methyloct-7-enoic acid, C=CCCCC[C@@](C)(N[*:1])C(=O)[*:2]; R4 = (R)-2-amino-2-methylhex-5-enoic acid, C=CCC[C@@](C)(N[*:1])C(=O)[*:2]; Phe(3-CF3) = N[C@@H](Cc1cccc(C(F)(F)F)c1)C(=O)O; Phe(2-Cl) = N[C@@H](Cc1ccccc1Cl)C(=O)O; dαMeGly(allyl) = C=CC[C@@](C)(N)C(=O)O; Bta = N[C@@H](Cc1csc2ccccc12)C(=O)O; Lys(iPr) = CC(C)NCCCC[C@H](N)C(=O)O; αAllylPro = C=CC[C@@]1(C(=O)O)CCCN1; Morpholinoacetyl = O=C(CN1CCOCC1)*; tBuAla = CC(C)(C)C[C@H](N)C(=O)O; 3Thi = N[C@@H](Cc1ccsc1)C(=O)O; Cha = N[C@@H](CC1CCCCC1)C(=O)O; Cit = NC(=O)NCCC[C@H](N)C(=O)O; S8 = C=CCCCCCC[C@](C)(N)C(=O)O; Leu(ol) = CC(C)C[C@H](N)CO; Me2Npr = not defined here; Alaol = C[C@@H](CO)N*; Ms = CS(=O)(=O)*

Experiment [1] has as its target full-length beta-Catenin (Uniprot ID P35222) (Homo sapiens (Human)) (UniProt P35222). The experiment can be described thus: fluorescence polarization competition; peptide titrated against 10 nM full-length beta-catenin + 10 nM 5FAM-TCF4(10-53). Background: Polarisation of emitted light reports the rotation of a fluorescent probe.
For experiment [2] the target is unchanged. Put plainly: fluorescence polarization competition; full-length beta-catenin, competitor 5FAM-TCF4(10-53) probe.
Experiment [3] shares this target. Put plainly: fluorescence polarization competition; full-length beta-catenin with 5FAM-TCF4(10-53) probe as competitor.
Target sequence in this assay (P35222 whole entry): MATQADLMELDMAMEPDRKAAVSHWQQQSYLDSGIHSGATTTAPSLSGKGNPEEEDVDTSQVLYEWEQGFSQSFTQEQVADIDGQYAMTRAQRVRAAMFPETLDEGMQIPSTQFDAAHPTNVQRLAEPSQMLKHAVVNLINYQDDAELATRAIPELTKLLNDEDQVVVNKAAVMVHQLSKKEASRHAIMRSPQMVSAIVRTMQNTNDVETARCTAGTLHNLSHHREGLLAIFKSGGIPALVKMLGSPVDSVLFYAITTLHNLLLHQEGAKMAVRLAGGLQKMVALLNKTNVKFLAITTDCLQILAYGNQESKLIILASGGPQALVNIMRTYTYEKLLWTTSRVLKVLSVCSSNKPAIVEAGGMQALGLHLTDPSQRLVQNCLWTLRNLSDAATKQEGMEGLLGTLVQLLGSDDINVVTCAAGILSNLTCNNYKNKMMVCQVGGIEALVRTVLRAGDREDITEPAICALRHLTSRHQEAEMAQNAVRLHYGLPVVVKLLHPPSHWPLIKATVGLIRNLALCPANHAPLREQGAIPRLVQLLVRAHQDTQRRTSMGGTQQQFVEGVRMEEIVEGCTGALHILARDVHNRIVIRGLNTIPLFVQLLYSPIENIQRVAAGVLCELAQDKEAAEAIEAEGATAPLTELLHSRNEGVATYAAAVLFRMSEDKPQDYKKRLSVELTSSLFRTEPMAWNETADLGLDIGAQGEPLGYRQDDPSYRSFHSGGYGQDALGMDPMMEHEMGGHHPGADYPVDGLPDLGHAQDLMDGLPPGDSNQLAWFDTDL
The target is the same in experiment [4]. Put plainly: fluorescence polarization competition; 10 nM full-length beta-catenin + 10 nM 5FAM-TCF4(10-53) probe.
Target sequence in this assay (P35222 whole entry): as above

B1: I-2527 (peptide)
peptide: Ac-[αAllylPro]N[Cha][B5(4)]DQK(Morpholinoacetyl)AFL[PyrS2]F[Bta][MorphAsn]-NH2
modifications: staple 1-4, 4-11
One may read the IC50 as the point on the concentration scale where inhibition reaches its midpoint. With B1, in experiment [1], the IC50 came to 263 nM.

B2: I-1071 (peptide)
peptide: Ac-[αAllylPro]D[tBuAla][B5(3)]DEAAFL[PyrS2″][Phe(2-Cl)][Bta]T-NH2
modifications: staple 1-4, 4-11; also: staple stereoisomer: later eluting HPLC peak
For orientation: EC50 means the concentration that produces a half-maximal response. Read a low EC50 as greater potency. The molecule B2 gave an EC50 in experiment [2] of 1260 nM. Further, the IC50 in experiment [1] was determined as 1260 nM.

B3: I-1078 (peptide)
peptide: Ac-[αAllylPro]D[Cha][B5(4)]DEAAFL[PyrS2″][Phe(2-Cl)][Bta]Q-NH2
modifications: staple 1-4, 4-11; also: later-eluting HPLC peak staple isomer composition
B3 yielded an EC50 in experiment [2] of 352 nM. The half-maximal inhibitory concentration (IC50) in experiment [1] was 352 nM.

B4: I-604 (peptide)
peptide: Ac-[αAllylPro]DI[B5(5)]D[Cit]AAFQ[S8]F[Bta]Q-NH2
modifications: staple 1-4, 4-11; also: staple isomer, earlier eluting HPLC peak
Regarding B4, the EC50 in experiment [2] is 692 nM. Besides, the IC50 in experiment [3] was determined as 692 nM.

B5: I-771 (peptide)
peptide: Ac-[αAllylPro]D[tBuAla][B5(7)]DDAAFQ[PyrS2][3Thi][Bta]H-NH2
modifications: staple 1-4, 4-11; also: earlier-eluting staple isomer
B5 displayed a half-maximal effective concentration (EC50) in experiment [2] of 5 nM. The molecule also had an IC50 in experiment [3] of 5 nM.

B6: I-764 (peptide)
peptide: Ac-[αAllylPro]D[tBuAla][B5(7)]DDAAFQ[PyrS2][3Thi][Bta]Q-NH2
modifications: staple 1-4, 4-11; also: later-eluting staple isomer
As for B6, the EC50 in experiment [2] was 14 nM. The molecule further registered an IC50 in experiment [3] of 14 nM.

B7: I-1988 (peptide)
peptide: Ac-PD[tBuAla][R6]DDAAFL[PyrS2][3Thi][Bta]Q-NH2
modifications: staple 4-11
Regarding B7, the IC50 in experiment [4] was 312 nM.

B8: I-1077 (peptide)
peptide: Ac-[αAllylPro]D[Cha][B5(4)]DEAAFL[PyrS2″][Phe(2-Cl)][Bta]Q-NH2
modifications: staple 1-4, 4-11; also: earlier-eluting HPLC peak staple isomer composition
B8: the EC50 in experiment [2] turned out to be 324 nM. Further, the half-inhibitory concentration (IC50) in experiment [1] stood at 324 nM.

B9: I-1074 (peptide)
peptide: Ac-[αAllylPro]D[tBuAla][B5(3)]DEAAFL[PyrS2″]F[Bta]Q-NH2
modifications: staple 1-4, 4-11; also: staple stereoisomer: later eluting HPLC peak
As for B9, the concentration for a half-maximal effect (EC50) in experiment [2] was determined as 498 nM. Besides, in experiment [1], the IC50 was determined as 498 nM.

B10: I-2006 (peptide)
peptide: Ac-[αAllylPro]D[tBuAla][B5(4)]NTA[Lys(iPr)]FN[PyrS2″][3Thi][Bta]Q-NH2
modifications: staple 1-4, 4-11
Turning to B10, the half-inhibitory concentration (IC50) in experiment [4] was 285 nM.

B11: I-2005 (peptide)
peptide: Ac-[αAllylPro]D[tBuAla][B5(4)]NT[Lys(iPr)]AFN[PyrS2″][3Thi][Bta]Q-NH2
modifications: staple 1-4, 4-11; not fully specified; printed as Ac-PL3-Asp-Npg-B5-Asn-Thr-iPrLys-Ala-Phe-Asn-PyrS2-3Thi-BztA-Gln-NH2
In the case of B11, in experiment [4], the concentration for half-maximal inhibition (IC50) was 357 nM.

B12: I-1080 (peptide)
peptide: Ac-[αAllylPro]D[tBuAla][B5(4)]DDAAFN[PyrS2″][Phe(2-Cl)][Bta][Leu(ol)]
modifications: staple 1-4, 4-11
Take B12: in experiment [2], the EC50 was 6 nM. In experiment [1], the IC50 amounted to 6 nM.

B13: I-605 (peptide)
peptide: Ac-[αAllylPro]DI[B5(5)]D[Cit]AAFQ[S8]F[Bta]Q-NH2
modifications: staple 1-4, 4-11
For B13, the EC50 in experiment [2] is 632 nM. In experiment [3], this molecule had a half-inhibitory concentration (IC50) of 632 nM.

B14: I-763 (peptide)
peptide: Ac-[αAllylPro]D[tBuAla][B5(7)]DDAAFQ[PyrS2][3Thi][Bta]Q-NH2
modifications: staple 1-4, 4-11; also: earlier-eluting staple isomer
B14 showed an EC50 in experiment [2] of 5 nM. In addition, in experiment [3], the 50% inhibitory concentration (IC50) turned out to be 5 nM.

B15: I-2003 (peptide)
peptide: Ac-[αAllylPro]DA[B5(4)]NTAAFN[PyrS2″][3Thi][Bta]Q-NH2
modifications: staple 1-4, 4-11; not fully specified; printed as Ac-PL3-Asp-Ala-B5-Asn-Thr-Ala-Ala-Phe-Asn-PyrS2-3Thi-BztA-Gln-NH2
In the case of B15, the IC50 in experiment [4] came out at 1020 nM.

B16: I-1992 (peptide)
peptide: Ac-PD[tBuAla][R4]DDAAFL[PyrS2][3Thi][Bta]Q-NH2
modifications: staple 4-11; not fully specified; printed as Ac-Pro-Asp-Npg-R4-Asp-Asp-Ala-Ala-Phe-Leu-PyrS2-3Thi-BztA-Gln-NH2; also: staple -CH=CH- reduced to -CH2-CH2-
B16: the 50% inhibitory concentration (IC50) in experiment [4] came out at 536 nM.

B17: I-2004 (peptide)
peptide: Ac-[αAllylPro]D[tBuAla][B5(4)]NT[Lys(iPr)]AFN[PyrS2″][3Thi][Bta]Q-NH2
modifications: staple 1-4, 4-11; not fully specified; printed as Ac-PL3-Asp-Npg-B5-Asn-Thr-iPrLys-Ala-Phe-Asn-PyrS2-3Thi-BztA-Gln-NH2
On to B17, for which, in experiment [4], the 50% inhibitory concentration (IC50) turned out to be 227 nM.

B18: I-1990 (peptide)
peptide: Ac-PD[tBuAla][dαMeGly(allyl)]DDAAFL[PyrS2][3Thi][Bta]Q-NH2
modifications: staple 4-11
In the case of B18, the IC50 in experiment [4] came to 585 nM.

B19: I-1081 (peptide)
peptide: Ac-[αAllylPro]D[tBuAla][B5(3)]DDAAFN[PyrS2″][Phe(2-Cl)][Bta]-Alaol
modifications: staple 1-4, 4-11
B19: in experiment [2], the EC50 was 5 nM. In addition, the IC50 in experiment [1] was 5 nM.

B20: I-1991 (peptide)
peptide: Ac-PD[tBuAla][R6]DDAAFL[PyrS2][3Thi][Bta]Q-NH2
modifications: staple 4-11; not fully specified; printed as Ac-Pro-Asp-Npg-R6-Asp-Asp-Ala-Ala-Phe-Leu-PyrS2-3Thi-BztA-Gln-NH2; also: staple -CH=CH- reduced to -CH2-CH2-
Regarding B20, the IC50 in experiment [4] came to 397 nM.

B21: I-2524 (peptide)
peptide: Ac-[αAllylPro]N[Cha][B5(25)]DQK(Ms)AFL[PyrS2]F[Bta][MorphAsn]-NH2
modifications: staple 1-4, 4-11
As for B21, the IC50 in experiment [1] was determined as 609 nM.

B22: I-1993 (peptide)
peptide: Ac-PD[tBuAla][dαMeGly(allyl)]DDAAFL[PyrS2][3Thi][Bta]Q-NH2
modifications: staple 4-11; not fully specified; printed as Ac-Pro-Asp-Npg-R3-Asp-Asp-Ala-Ala-Phe-Leu-PyrS2-3Thi-BztA-Gln-NH2; also: staple -CH=CH- reduced to -CH2-CH2-
In the case of B22, in experiment [4], the half-maximal inhibitory concentration (IC50) came to 728 nM.

B23: I-1268: Ac-PL3-Asp-Npg-B5-Asp-Thr-Ala-Ala-3F3MeF-Thr-PyrS2-Phe-BztA-Ser-NH2 (peptide)
peptide: Ac-[αAllylPro]D[tBuAla][B5(5)]DTAA[Phe(3-CF3)]T[PyrS2″]F[Bta]S-NH2
modifications: staple 1-4, 4-11
B23: in experiment [1], the IC50 came out at 198 nM.

B24: I-1989 (peptide)
peptide: Ac-PD[tBuAla][R4]DDAAFL[PyrS2][3Thi][Bta]Q-NH2
modifications: staple 4-11
In the case of B24, the IC50 in experiment [4] turned out to be 186 nM.

B25: I-772 (peptide)
peptide: Ac-[αAllylPro]D[tBuAla][B5(7)]DDAAFQ[PyrS2][3Thi][Bta]H-NH2
modifications: staple 1-4, 4-11; also: later-eluting staple isomer
Molecule B25 registered an EC50 in experiment [2] of 7 nM. The IC50 in experiment [3] amounted to 7 nM.

B26: I-2528 (peptide)
peptide: Ac-[αAllylPro]N[Cha][B5(25)]DQK(Me2Npr)AFL[PyrS2]F[Bta][MorphAsn]-NH2
modifications: staple 1-4, 4-11; reading uncertain; also: printed as Ac-PL3-Asn-Cha-B5-Asp-Gln-[Me2Npr]Lys-Ala-Phe-Leu-PyrS2-Phe-BztA-MorphAsn-NH2
B26: the IC50 in experiment [1] was 610 nM.

B27: I-2002 (peptide)
peptide: Ac-[αAllylPro]DA[B5(4)]NTAAFN[PyrS2″][3Thi][Bta]Q-NH2
modifications: staple 1-4, 4-11; not fully specified; printed as Ac-PL3-Asp-Ala-B5-Asn-Thr-Ala-Ala-Phe-Asn-PyrS2-3Thi-BztA-Gln-NH2
Regarding B27, the IC50 in experiment [4] was found to be 612 nM.

B28: I-1073 (peptide)
peptide: Ac-[αAllylPro]D[tBuAla][B5(3)]DEAAFL[PyrS2″]F[Bta]Q-NH2
modifications: staple 1-4, 4-11; not fully specified; printed as Ac-PL3-Asp-Npg-B5-Asp-Glu-Ala-Ala-Phe-Leu-PyrS2-Phe-BztA-Gln-NH2
B28 had an EC50 in experiment [2] of 409 nM. In experiment [1], the IC50 is 409 nM.

B29: I-2525 (peptide)
peptide: Ac-[αAllylPro]N[Cha][B5(25)]DQK(CF3CO)AFL[PyrS2]F[Bta][MorphAsn]-NH2
modifications: staple 1-4, 4-11
Turning to B29, in experiment [1], the IC50 was 4290 nM.
